Results published in the DeepSol protein solubility set.

test: soluble on expression in E. coli; label from the status in PepcDB or PDB records

| Sequence | soluble on expression in E. coli |
| --- | --- |
| MSSNNRKKLLLMGRSGSGKSSMRSIIFSNYSAFDTRRLGATIDVEHSHLRFLGNMTLNLWDCGGQDVFMENYFTKQKDHIFQMVQVLIHVFDVESTEVLKDIEIFAKALKQLRKYSPDAKIFVLLHKMDLVQLDKREELFQIMMKNLSETSSEFGFPNLIGFPTSIWDESLYKAWSQIVCSLIPNMSNHQSNLKKFKEIMNALEIILFERTTFLVICSSNGENSNENHDSSDNNNVLLDPKRFEKISNIMKNFKQSCTKLKSGFKTLILNNNIYVSELSSNMVCFIVLKDMNIPQELVLENIKKAKEFFQ | soluble |
| MSSNPLRFFVLTIFPHIISCYSEYGIVKQAIKKGKVEVYPIDLREFAPKGQVDDVPYGGLPGMVLKPEPIYEAYDYVVENYGKPFVLITEPWGEKLNQKLVNELSKKERIMIICGRYEGVDERVKKIVDMEISLGDFILSGGEIVALAVIDAVSRVLPGVLSEPQSIQEDSFQNRWLGYPVYTRPREYRGMKVPEELLSGHHKLIELWKLWHRIENTVKKRPDLIPKDLTELEKDILNSILSGKSFKEWLKEHKHLLLEHHHHHH | not soluble |
| MSSPYILVLYYSRHGATAEMARQIARGVEQGGFEARVRTVPAVSTECEAVAPDIPAEGALYATLEDLKNCAGLALGSPTRFGNMASPLKYFLDGTSSLWLTGSLVGKPAAVFTSTASLHGGQETTQLSMLLPLLHHGMLVLGIPYSEPALLETRGGGTPYGASHFAGADGKRSLDEHELTLCRALGKRLAETAGKLGS | soluble |
| MSSRNNPARVAIVMGSKSDWATMQFAAEIFEILDVPHHVEVVSAHRTPDKLFSFAETAEENGYQVIIAGAGGAAHLPGMIAAKTLVPVLGVPVQSAALSGVDSLYSIVQMPRGIPVGTLAIGKAGAANAALLAAQILAQHDAELHQRIADWRKAQTDEVLENPDPRGTL | not soluble |
| MSSSHKSWNSIYEFTVKDINGVDVSLEKYRGHVCLIVNVACKCGATDKNYRQLQEMHTRLVGKGLRILAFPCNQFGGQEPWAEAEIKKFVTEKYGVQFDMFSKIKVNGSDADDLYKFLKSRQHGTLTNNIKWNFSKFLVDRQGQPVKRYSPTTAPYDIEGDIMELLEKK | soluble |
| MSSSIPRVYSLGNSAMTYLLALRIAQLPSQPKVPSVVLLLNDQKKLNRFLNNDSKIIVKSSNNNKETYHRQFMASCVPPILSNGEIAPIENLIVSDPSSKFITAQLSKYNKSLRPETNILFLNPSLNLLEHLHRYRWRFDEARPNLFMGFTTPVDVGTIHQEFQLSLKVKGRIQFHIAKIDGFPRMSSTGKSASLSLRGDRQKNEKENNAFYKLFREISRLRSGIGSDLVSFDLHVHGFQDLFFTELEKLILESCTEPLLAVYDCVYKKELLKIPGAQDIIKKLISEQLSIIDRSYPSLNTNPNYSVIFDKERIFSLVMRDLEVNGHKRAKLAQSLNQLNQTNINELNGFFVSLGKYKKCNCKWNDILLTLIKGKQFITKQKALDYHYL | soluble |
| MSSSLLASLSRLSLLQTRQIHQTIPAGSSVFMKRQKKIDPEVAKQRETRRRKRLEKDIRQMQKHSKKPKPVDELTLDVKSAKNIGERRRPRTELTLEQIDERAIALKDYTRSRLALQQEDDAWIRGAIESQRKALNELKMLKLELYEAAVQPAAKDLPLIVQGPSLTPPIRNYEAPDGDYIDTTRNWAS | not soluble |
| MSSYRGGSRGGGSNYMSNLPFGLGYGDVGKNHITEFPSIPLPINGPITNKERSLAVKYINFGKTVKDGPFYTGSMSLIIDQQENSKSGKRKPNIILDEDDTNDGIERYSDKYLKKRKIGISIDDHPYNLNLFPNELYNVMGINKKKLLAISKFNNADDVFTGTGLQDENIGLSMLAKLKELAEDVDDASTGDGAAKGSKTGEGEDDDLADDDFEEDEDEEDDDDYNAEKYFNNGDDDDYGDEEDPNEEAAF | not soluble |
| MSTAVIVSRPPSQTASFHGPQHPNRCSFSSSSSESIPPTTGRAKGSSDFEELEIRIDKALKERDAEWRKHEKSQIQFLQNETSNMLKSLHNEINRLGNELREEKRKTLHGDDDSADKIAELEKVITEKEAYTKNLEKKVSTTIQKLQEQITIQSDRIRQLNEELSDRNQTVTHLSQQLRAIKLREAMATSQHRRRASSQLSTTSSPPMTSPSSPHRIFPPVSSGLLSASVAVTYPGNSRISIQKRSTSAMRAPTMPN | not soluble |
| MSTDIDCIVIGAGVVGLAIARALAAGGHEVLVAEAAEGIGTGTSSRNSEVIHAGIYYPADSLKARLCVRGKHLLYEYCAARGVPHQRLGKLIVATSDAEASQLDSIARRAGANGVDDLQHIDGAAARRLEPALHCTAALVSPSTGIVDSHALMLAYQGDAENDGAQLVFHTPLIAGRVRPEGGFELDFGGAEPMTLSCRVLINAAGLHAPGLARRIEGIPRDSIPPEYLCKGSYFTLAGRAPFSRLIYPVPQHAGLGVHLTLDLGGQAKFGPDTEWIATEDYTLDPRRADVFYAAVRSYWPALPDGALAPGYTGIRPKISGPHEPAADFAISGPASHGVAGLVNLYGIESPGLTASLAIAEETLARLAALEHHHHHH | soluble |
| MSTGKIIQVIGAVIDVEFARDNTPKVYDALNVVEAGLVLEVQQQIGDGVVRTIAMGSSDGLRRGMEVKNTNAPISVPVGHGTLGRIMNVLGEPIDEAGPIEYTEKRSIHQAPPAYDELALSTEILETGIKVVDLICPFAKGGKVGLFGGAGVGKTVTMMELINNIAKEHSGYSVFAGVGERTREGNDFYYEMKDSNVLDKVSLVYGQMNEPPGNRLRVALSGLTIAEGFRDEKRDVLMFIDNIYRYTLAGTEVSALLGRMPSAVGYQPTLAAEMGALQERITSTKTGSITSVQAVYVPADDLTDPSPATTFSHLDATIVLSRQIAELGIYPAVDPLDSTSRQLDPLVVGQDHYETARAVQKVLQRYKELKDIIAILGMDELSDEDKKIVDRARKIQRFLSQPFHVAEVFTGNPGKFVSLKDTVASFKAIVNGEYDHLPEQAFYMVGSIQEAIEKAKTL | not soluble |
| MSTGSTKLRNVDAVIKKGKPFSILLLGTDTGALGRGKDFSARTDTMIVATINPKKESMTLTSIPRDTQVMIDGQSQKINAAYTIGGASGAVKSVEKLLDVPIDFYVLLNMGGLKQIINAMGGVTVTPKLTFKYGNANVKKGVKIKLNGAAALDYSRMRYDDPQGDYGRQKRQQQVIMAMVSQSNSLGSIANIEKITKKLAKNMRTDLTWNDMVALDTKYKNASHHAKSYTVQGTDATIDGLSYQVASSSERYKNSKRIRKALGLSNSNLTESVFSETASITTGSSSSSSSSSSTTTSSDTTTYGTSTTQDTTTQDQTTTQDQTTTNQYLEHHHHHH | soluble |
| MSTKYLFIYNEIREKILCNKYTMNEQLPDEMTLAKQFACSRMTIKKALDLLVSEGLIFRKRGQGTFVLSRGSSKRKLIVPERDIRGLTKISEDAHSTIDSRIIHFKLEFANEFLAEKLQVALQSPVYNIYRLRIIDGKPYVLEQTYMSTDVIPGITEDILQKSIYNYIEGKLGLHIASATKILRASSSSENEQHYLQLLPTEPVFEVEQVAYLDNGTPFEYSISRHRYDLFEFNSFALRHSS | not soluble |
| MSTMGNEASYPAEMCSHFDNDEIKRLGRRFKKLDLDKSGSLSVEEFMSLPELRHNPLVRRVIDVFDTDGDGEVDFKEFILGTSQFSVKGDEEQKLRFAFSIYDMDKDGYISNGELFQVLKMMVGNNLTDWQLQQLVDKTIIILDKDGDGKISFEEFSAVVRDLEIHKKLVLIV | soluble |
| MSTPTVITLNDGREIQATDKPSYDEDSGFYEFEQLDGKRTRLNKDQIRTVKELLEHHHHHH | not soluble |
| MSTQIKVTPEQLEQAAKTVKNTRSSLEYIHQDLYSQTEYIASQWSGASSDRFYQMFNEAKPMMFNILQELDKIAVELERAAVKFREADELYGGNLVDSDIQEGAMCGKIPPKSEESFFNNKDLNAAWTGISTGFVDGAVDAWEGLISLGDKETWLNMRDAIVNYEETIPAALNALSDSFVNNLWHGDMESREHYAAYGIATLGLGLLGDKGLSKAGQVGKGAAITGFTKGKSLVTNSPAYRNALHILNNYEFKAGNHLSYAGVGSIQKYLQKAAPYTYEGPNGPKTIRLRLGELAGDKHPVTGIRYDLDGFPIFKALSEVKLKEADFKKSRPTHDRICSKALYEQIMKDPKLAAKFTEEEIELFKLGEVPENYTWHHHQEAGRMQLVDYETHRKTGHTGGYKIWGKDSDK | not soluble |
| MSTSQEISDPAQATSSAQVKWPRYLEATLGFDNHWHPAAFDHELAEGEFVAVTMLGEKVLLTRAKGEVKAIADGCAHRGVPFSKEPLCFKAGTVSCWYHGWTYDLDDGRLVDVLTSPGSPVIGKIGIKVYPVQVAQGVVFVFIGDEEPHALSEDLPPGFLDEDTHLLGIRRTVQSNWRLGVENGFDTTHIFMHRNSPWVSGNRLAFPYGFVPADRDAMQVYDENWPKGVLDRLSENYMPVFEATLDGETVLSAELTGEEKKVAAQVSVWLPGVLKVDPFPDPTLIQYEFYVPISETQHEYFQVLQRKVEGPEDVKTFEVEFEERWRDDALHGFNDDDVWAREAQQEFYGERDGWSKEQLFPPDMCIVKWRTLASERGRGVRAARVEMSHHHHHH | soluble |
| MSVDKYGKVYLIGAGPGNPNYLTKKAERLIREADVILYDRLVNPLILQYANLTTEIIDVGKKPYAKHIQQEKINECIVEAARRYNKVVRLKGGDPAIFGRVQEEVDTLNNFNIAFEIVPGVTSASAAVATMQTGLTMRAVAKSVTFSTGHFKDSEENEVDVNALVNGGTLAIYMGVKRLGKIIAQIQQYTDIDYPIAIVFQASCFNEFVVKGRLSNIVGKLEHYAIEAKPGICIIGEVVGYTENVSTTSNPTQQFYVVSGSRHDALMLCEHLYDEGYGCLLNPNDTSNGTYHSSQYDYYDAFIKQQENVTYISTDRADANTVLCH | not soluble |
| MSVDVKSDFSENESSSTPSPTTVPADVTWPHYPMMPFMQPHPLREKMLQPTFDPQIYGRWSQMGDTGFYGHPDLYPFGLPQLAANGQIPAVEAVDVKPPLSNGSSSSDSGMYPSPSDMMTPFPSTSSGAASSSELSAAAAAAANYQMRAATCYQQSVWPFMDYQQFQGFSWKMPLGNNHGKDRRSSSDGKTLPTGPGTNNVRVRTADKYRMVYSDYQRLELEKEFHTSPFITSDRKSQLSTMLSLTERQIKIWFQNRRAKDRRDKQKIRL | not soluble |
| MSVLQKIADIEAEMARTQKNKATNAHLGILKAKLAKLRRDLITPKGGGGGPGEGFDVAKTGDARIGFVGFPSVGKSTLLCNLAGVFSEVAAYEFTTLTTVPGVIRYKGAKIQLLDLPGIIEGAKDGKGRGKQVIAVARTCSLILMVLDVMKPLQHKKLLEYELEGFGIRLNKQPPNIGYKRKEKGGINLTMLVPQSELDLDLVKSILAEYRIHNADITLRYDATSEDLIDVIEGNRIYIPCIYVLNKIDQISIEELDIIYRIPHTVPISAHHKWNFDDLLEKVWEYLNLIRIYTKPKGQLPDYSQPIVLNAERKSIEDLCTKIHKSLQKDFKCALVWGASAKHNPQRVGRDHVLIDEDVVQVIKKV | not soluble |
| MSVPGPSSPDGALTRPPYCLEAGEPTPGLSDTSPDEGLIEDLTIEDKAVEQLAEGLLSHYLPDLQRSKQALQELTQNQVVLLDTLEQEISKFKECHSMLDINALFAEAKHYHAKLVNIRKEMLMLHEKTSKLKKRALKLQQKRQKEELEREQQREKEFEREKQLTARPAKRM | soluble |
| MSVSRRDVLKFAAATPGVLGLGVVASSLRAAPASAGSLGTLLDYAAGVIPASQIRAAGAVGAIRYVSDRRPGGAWMLGKPIQLSEARDLSGNGLKIVSCYQYGKGSTADWLGGASAGVQHARRGSELHAAAGGPTSAPIYASIDDNPSYEQYKNQIVPYLRSWESVIGHQRTGVYANSKTIDWAVNDGLGSYFWQHNWGSPKGYTHPAAHLHQVEIDKRKVGGVGVDVNQILKPQFGQWA | not soluble |
